The Kd is a measure of binding affinity in units of concentration. Lower therefore signals a tighter complex.

Six molecules from article PMC5562350 can be followed below.

The target in the assay is Man9-V3 glycopeptide (HIV-1 (strain not stated)).

Some results are limits rather than exact numbers.

Regarding DH270.IA4 (antibody), the Kd is more than 10 µM.

Turning to DH270.IA3 (antibody), the Kd is more than 10 µM.

Molecule DH270.IA2 (antibody) registered a Kd of more than 10 µM.

Molecule DH270.1 (antibody) yielded a Kd of 0.331 µM.

DH270.UCA (antibody) registered a Kd of more than 10 µM.

B1: DH270.6 (antibody, V domains shown)
VH: QVQLVQSGAQMKNPGASVKVSCAPSGYTFTDFYIHWLRQAPGQGLQWMGWMNPQTGRTNTARNFQGRVTMTRDTSIGTAYMELRSLTSDDTAIYYCTTGGWISLYYDSSYYPNFDHWGQGTLLTVSS
VL: QSALTQPASVSGSPGQSITISCTGTKYDVGSHDLVSWYQQYPGKVPKYMIYEVNKRPSGVSNRFSGSKSGNTASLTISGLRAEDEADYYCCSFGGSATVVCGGGTKVTVL
The molecule B1 gave a Kd of 0.188 µM.
